Results on eight substances are retold here after PMC2292230.

Read-outs that look alike come from different tables or passages of the source.

What all share (assay): SPR
In general terms: Surface plasmon resonance follows binding to a sensor surface in real time, without labels.

For experiment [1], the target named is mouse CD1d loaded with α-GalCer (mouse) (UniProt P11609).
The target in experiment [2] is human CD1d loaded with α-GalCer, wild type (human) (UniProt P15813).
For experiment [3], the target named is human CD1d Val147 to Ala mutant loaded with α-GalCer (human).
Experiment [4] deals with human CD1d Gln150 to Ala mutant loaded with α-GalCer (human).
In experiment [5] the target is human CD1d loaded with α-GalCer, wild type (human) (UniProt P15813). The source holds these as a separate data set.
Experiment [6] deals with human CD1d Arg79 to Ala mutant loaded with α-GalCer (human).
For experiment [7], the target named is human CD1d Lys86 to Ala mutant loaded with α-GalCer (human).
For experiment [8], the target named is human CD1d Met87 to Ala mutant loaded with α-GalCer (human).

UniProt P11609, sequence (P11609 22-336): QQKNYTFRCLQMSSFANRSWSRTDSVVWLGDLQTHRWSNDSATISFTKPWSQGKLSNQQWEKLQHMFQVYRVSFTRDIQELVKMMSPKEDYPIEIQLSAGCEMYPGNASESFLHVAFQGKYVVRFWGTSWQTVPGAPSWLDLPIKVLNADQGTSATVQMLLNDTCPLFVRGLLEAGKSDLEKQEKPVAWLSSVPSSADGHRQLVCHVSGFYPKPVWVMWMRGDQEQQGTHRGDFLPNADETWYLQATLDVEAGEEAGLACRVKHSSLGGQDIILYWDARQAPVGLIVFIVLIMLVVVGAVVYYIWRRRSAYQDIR
UniProt P15813, sequence (P15813 20-301): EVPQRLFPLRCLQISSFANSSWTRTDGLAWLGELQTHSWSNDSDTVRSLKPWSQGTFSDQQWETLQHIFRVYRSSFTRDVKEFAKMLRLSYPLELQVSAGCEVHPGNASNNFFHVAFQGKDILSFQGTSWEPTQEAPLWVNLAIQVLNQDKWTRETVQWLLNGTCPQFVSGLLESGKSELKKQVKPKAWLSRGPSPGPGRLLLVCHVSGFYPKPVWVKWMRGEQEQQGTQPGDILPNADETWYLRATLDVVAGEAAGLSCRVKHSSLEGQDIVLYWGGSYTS

Broadly, the Kd is the free concentration of one partner at which half of the binding sites on the other are occupied at equilibrium, for simple one-to-one binding. The low end stands for a tighter complex, the high end for a looser complex. Turning to “human NKT TCR (NKT15) Arg103α to Ala mutant”, the Kd in experiment [1] came to 2.56 µM.

For “human NKT TCR (NKT15) Asn53β to Ala mutant”, the figures for the Kd in experiment [2] and in experiment [1] were 0.73 µM and 1.19 µM, respectively.

For “human NKT TCR (NKT15) Glu56β to Ala mutant”, in experiment [1], the dissociation constant (Kd) is 0.72 µM.

On to human NKT TCR (NKT15) Gly96αAla mutant, for which the equilibrium dissociation constant (Kd) was 1.07 µM in experiment [2] and 1.19 µM in experiment [1].

For the substance human NKT TCR (NKT15) Pro28αAla mutant, the Kd in experiment [2] turned out to be 5.44 µM; in experiment [1], 4.75 µM.

With human NKT TCR (NKT15) Ser30αAla mutant, in experiment [1], the Kd was 1.16 µM.

For human NKT TCR (NKT15) Tyr103βAla mutant, the Kd in experiment [2] came to 0.71 µM; in experiment [1], 0.82 µM.

With human NKT TCR (NKT15), wild type, the Kd worked out at 3.6 µM in experiment [3]; 2.5 µM in experiment [4]; 0.58 µM in experiment [5]; 0.35 µM in experiment [6]; 2.83 µM in experiment [7]; 7.9 µM in experiment [8]. The Kd in experiment [2] was found to be 0.46 µM; in experiment [1] it was 0.94 µM.
